Measurements as given in PMC11507941 (bioRxiv, 2024).
Positions count from the first letter of the chain named. Numbers in names are those of the source. Like-named read-outs stand apart in the source and are kept apart here.

What was measured:
Experiment in all cases: fluorescence polarisation
[1] = molecular target: T1, WT SufS (E. coli, UniProt P77444 1-406, PLP cofactor attached to K226 as an internal aldimine)
T1 sequence: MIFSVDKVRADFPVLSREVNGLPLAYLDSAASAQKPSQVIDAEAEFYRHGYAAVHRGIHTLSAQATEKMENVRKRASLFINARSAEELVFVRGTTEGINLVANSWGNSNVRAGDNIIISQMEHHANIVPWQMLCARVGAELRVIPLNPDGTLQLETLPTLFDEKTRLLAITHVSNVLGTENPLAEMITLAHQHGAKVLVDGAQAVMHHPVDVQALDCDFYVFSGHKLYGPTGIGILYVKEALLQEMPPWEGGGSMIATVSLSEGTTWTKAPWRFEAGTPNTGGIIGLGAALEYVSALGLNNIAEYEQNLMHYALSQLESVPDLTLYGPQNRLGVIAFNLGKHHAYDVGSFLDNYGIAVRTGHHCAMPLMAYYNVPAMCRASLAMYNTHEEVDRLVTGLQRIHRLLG

[2] = molecular target: T2, R56A SufS (E. coli, UniProt P77444 1-406, R56A, PLP cofactor (occupancy greater than 90%))
T2 sequence: T1 sequence with R56A

[3] = molecular target: T3, R56K SufS (E. coli, UniProt P77444 1-406, R56K, PLP cofactor (occupancy greater than 90%))
T3 sequence: T1 sequence with R56K

[4] = molecular target: T4, R359A SufS (E. coli, UniProt P77444 1-406, R359A, PLP cofactor (occupancy greater than 90%))
T4 sequence: T1 sequence with R359A

[5] = molecular target: T5, R359K SufS (E. coli, UniProt P77444 1-406, R359K, PLP cofactor (occupancy greater than 90%))
T5 sequence: T1 sequence with R359K

[6] = molecular target: T1, WT SufS; remark: listed apart in the source
[7] = molecular target: T2, R56A SufS; remark: listed apart in the source
[8] = molecular target: T3, R56K SufS; remark: listed apart in the source
[9] = molecular target: T4, R359A SufS; remark: listed apart in the source
[10] = molecular target: T5, R359K SufS; remark: listed apart in the source

Kd [1]: 2.5 ± 0.3 µM | Kd [2]: 5.8 ± 0.9 µM | Kd [3]: 8.5 ± 1.1 µM | Kd [4]: 0.9 ± 0.2 µM | Kd [5]: 4.6 ± 0.5 µM | Kd [6]: 0.2 ± 0.1 µM | Kd [7]: 4 ± 0.4 µM | Kd [8]: 2.8 ± 0.3 µM | Kd [9]: 0.3 ± 0.1 µM | Kd [10]: 2.8 ± 0.3 µM
B1: BODIPY-FL labeled C51A/E107C SufE (natural protein, E. coli, UniProt P76194 1-138, looked up)
chain: MALLPDKEKLLRNFLRCANWEEKYLYIIELGQRLPELRDEDRSPQNSIQGAQSQVWIVMRQNAQGIIELQGDSDAAIVKGLIAVVFILYDQMTPQDIVNFDVRPWFCKMALTQHLTPSRSQGLEAMIRAIRAKAAALS
modifications: BODIPY FL maleimide label (labelling efficiency 60-80%)
